Results published in publication PMC5664571.

molecular target: E. coli RNA polymerase holoenzyme saturated with sigma70 (Escherichia coli) (UniProt P0A7Z4+P0A8V2+P0A8T7+P0A800+P00579); assay: EMSA; details: EMSA: 10 nM DNA, 0-170 nM RNAP, binding buffer (5X: 750 mM KCl, 0.5 mM DTT, 0.5 mM EDTA, 50 mM Tris pH 7.4; 1X = 150 mM KCl, 0.1 mM DTT, 0.1 mM EDTA, 10 mM …)

Point of comparison: J23109 + 1/2UP, Kd 64.8 nM. Against it:
- CCAGGATACATAGATTACCACAACTCCGAGCCCTTCCACCACCTATATTTGCTGCTCGTAAAAAAAAAACTTGACAGCTAGCTCAGTCCTAGGTATAATGCTAGCAGCTGTCACCGGATGTGCTTTCCGGTCTGATGAGTCCGTGAGGACGAAACAGCCTCTACAAATAATTTTGTTTAATAAGTCCAATAGTTTATAAGGAAAGAATTACCTATGCGTAAAGGCGAAGAGCTGTTCACTGGTGTCGTCCC (double strand) [J23119 + 1/2UP] — 3.1-fold lower, 21 nM
- J23112 + UP — 5.1-fold lower, 12.6 nM
- J23109 — within 1.5-fold, 46 nM
- J23109 + UP — 8.7-fold lower, 7.44 nM
- J23112 + 1/2UP — within 1.5-fold, 68.2 nM
- CCAGGATACATAGATTACCACAACTCCGAGCCCTTCCACCACCTATATTTGCTGCTCGTAAAAAAAAAACCTGACAGCTAGCTCAGTCCTAGGTATAATGCTAGCAGCTGTCACCGGATGTGCTTTCCGGTCTGATGAGTCCGTGAGGACGAAACAGCCTCTACAAATAATTTTGTTTAATAAGTCCAATAGTTTATAAGGAAAGAATTACCTATGCGTAAAGGCGAAGAGCTGTTCACTGGTGTCGTCCC (double strand) [J23108 + 1/2UP] — 2.9-fold lower, 22 nM
- CCAGGATACATAGATTACCACAACTCCGAGCCCTTCCACCACCTATGGAAAATTTTTTTAAAAAAAAAACTTGACAGCTAGCTCAGTCCTAGGTATAATGCTAGCAGCTGTCACCGGATGTGCTTTCCGGTCTGATGAGTCCGTGAGGACGAAACAGCCTCTACAAATAATTTTGTTTAATAAGTCCAATAGTTTATAAGGAAAGAATTACCTATGCGTAAAGGCGAAGAGCTGTTCACTGGTGTCGTCCC (double strand) [J23119 + UP] — 1.5-fold lower, 42 nM
- J23112 — within 1.5-fold, 50.8 nM
- J23115 + 1/2UP — within 1.5-fold, 51.7 nM
- CCAGGATACATAGATTACCACAACTCCGAGCCCTTCCACCACCTATGGAAAATTTTTTTAAAAAAAAAACCTGACAGCTAGCTCAGTCCTAGGTATAATGCTAGCAGCTGTCACCGGATGTGCTTTCCGGTCTGATGAGTCCGTGAGGACGAAACAGCCTCTACAAATAATTTTGTTTAATAAGTCCAATAGTTTATAAGGAAAGAATTACCTATGCGTAAAGGCGAAGAGCTGTTCACTGGTGTCGTCCC (double strand) [J23108 + UP] — 2.1-fold lower, 31.4 nM
- J23115 — within 1.5-fold, 55 nM
- CCAGGATACATAGATTACCACAACTCCGAGCCCTTCCACCACCTATATTTGCTGCTCGTAAAAAAAAAACTTGACAGCTAGCTCAGTCCTAGGTACTGTGCTAGCAGCTGTCACCGGATGTGCTTTCCGGTCTGATGAGTCCGTGAGGACGAAACAGCCTCTACAAATAATTTTGTTTAATAAGTCCAATAGTTTATAAGGAAAGAATTACCTATGCGTAAAGGCGAAGAGCTGTTCACTGGTGTCGTCCC (double strand) [J23102 + 1/2UP] — within 1.5-fold, 45.5 nM
- J23115 + UP — 1.7-fold lower, 38.1 nM
- CCAGGATACATAGATTACCACAACTCCGAGCCCTTCCACCACCTATGGAAAATTTTTTTAAAAAAAAAACTTGACAGCTAGCTCAGTCCTAGGTACTGTGCTAGCAGCTGTCACCGGATGTGCTTTCCGGTCTGATGAGTCCGTGAGGACGAAACAGCCTCTACAAATAATTTTGTTTAATAAGTCCAATAGTTTATAAGGAAAGAATTACCTATGCGTAAAGGCGAAGAGCTGTTCACTGGTGTCGTCCC (double strand) [J23102 + UP] — within 1.5-fold, 44.8 nM
